The subject of data set [1] is recurrent/refractory small cell lung cancer (SCLC). As to conditions: single agent; cited from earlier work.
A short description of data set [2]: Adverse health effects in treated tumor-bearing mice. The data set is classed as in vivo, female NOD/SCID mice. As to conditions: tumor-bearing NOD/SCID mice treated intraperitoneally. The protocol:
(§1) A GBM PDX tumor line was grown subcutaneously in the flanks of female NOD/SCID mice using art-recognized techniques. Tumor volumes and mouse weights were monitored once or twice per week. When tumor volumes reached 150-250 mm^3, mice were randomly assigned to treatment groups and injected intraperitoneally with SC16.56 PDB3 or an isotype control human IgG1.PDB3. SC16.56 PDB3 comprises the same humanized antibody as found in Rova-t but employs a different PBD cytotoxin. Following treatment, tumor volumes and mouse weights were monitored until tumors exceeded 1000 mm^3 or mice became sick.

Data set [3] concerns GB8 tumors (GBM PDX tumor line). The experiment in a line: Glioblastoma PDX tumor growth suppression in immunodeficient mice. It is filed as in vivo, female NOD/SCID mice. As to conditions: single dose 0.2 mg/kg, intraperitoneal, subcutaneous GB8 tumors, 20 days post-treatment (FIG. 3). As for the experimental part: as §1

For rovalpituzumab tesirine [Rova-T], in data set [1], the clinical activity entry is “clinically demonstrated single agent activity”.

B1: SC16.56 PBD3: anti-DLL3 ADC; comprises the same humanized antibody as found in Rova-T but employs a different PBD cytotoxin (conjugate, chains of the INN, looked up)
VH: QVQLVQSGAEVKKPGASVKVSCKASGYTFTNYGMNWVRQAPGQGLEWMGWINTYTGEPTYADDFKGRVTMTTDTSTSTAYMELRSLRSDDTAVYYCARIGDSSPSDYWGQGTLVTVSS
VL: EIVMTQSPATLSVSPGERATLSCKASQSVSNDVVWYQQKPGQAPRLLIYYASNRYTGIPARFSGSGSGTEFTLTISSLQSEDFAVYYCQQDYTSPWTFGQGTKLEIK
modifications: PBD3 cytotoxin conjugate
As to B1, the adverse health effects result in data set [2] is listed as “did not exhibit any adverse health effects beyond those typically seen in immunodeficient, tumor-bearing NOD/SCID mice”. Besides, the “tumor growth (tumor volume)” value in data set [3] was “tumor suppression”.

Source of the values: patent US20190225685A1, “ANTI-DLL3 ANTIBODY DRUG CONJUGATES AND METHODS OF USE” (ABBVIE STEMCENTRX LLC, priority 2018, published 2019).
